{"source": "paper PMC3355305", "about": "“Localized Dimerization and Nucleoid Binding Drive Gradient Formation by the Bacterial Cell Division Inhibitor MipZ” (Molecular Cell, 2012)", "molecules": {"B1": {"name": "MipZ: P loop ATPase and cell division inhibitor of Caulobacter crescentus; hexahistidine-tagged in vitro, YFP fusion in FRAP (protein)", "chain": "MAETRVIVVGNEKGGAGKSTIAVHLVTALLYGGAKVAVIDLDLRQRTSARFFENRRAWLDNKKIELPEPLALNLSDNDVALAERPEEEQVAGFEAAFARAMAECDFILIDTPGGDSAITRMAHGRADLVVTPMNDSFVDFDMLGTVDPVTLELTKPSLYSLTVWEGRKQRALSGQRQAMDWVVLRNRLATTEARNRKRLEDRLNALAKRVGFRIGPGLRDRVIYRELFPFGLTIADLSPQVRPVPVSLQHLAARQELRALMHSLGLSAYSGETMLAAQ", "modifications": "left off: His6, end not stated, state not stated", "notes": "hexahistidine-tagged in vitro, YFP fusion in FRAP"}}, "key": {"[1]": {"target": "MipZ dimer", "experiment": "Effect of ParB and parS-containing plasmid DNA on the ATPase activity of MipZ", "format": "biochemical, Caulobacter crescentus", "settings": "for Kd: read-out: K", "source_text": "Figure 3 Interaction of MipZ with FtsZ and ParB (A) Effect of different mutations on the activity of MipZ. Strains MT177 (WT), DK2 (K13A), MT178 (G14V), MT179 (K18Q), and MT197 (D42A) were cultivated for 8 hr in conditions that prevent expression of wild-type mipZ while inducing expression of the indicated mipZ-yfp allele (the scale bar represents 2 μm). (B) Effect of MipZ and its mutant derivatives on the GTPase activity of FtsZ. Shown are the turnover numbers (kcat) of FtsZ in the absence of additional proteins (–) or in the presence of different MipZ variants or BSA. Data represent the average of at least three independent experiments (±SD). (C and D) SPR analysis of the interaction between MipZ and ParB. ParB (3800 RU) was immobilized on a sensor chip and probed with the indicated MipZ proteins (6 μM) in the presence of ADP (C) or ATP (D). (E) Colocalization of mutant MipZ variants with ParB. Strains DK3 (K13A), DK5 (G14V), DK6 (K18Q), and DK7 (D42A) were induced for 8 hr to synthesize CFP-ParB and the indicated MipZ-YFP variants in place of wild-type MipZ (the scale bar represents 2 μm). […] (F) Two-hybrid analysis of the interaction between MipZ and ParB. E. coli BTH101 was transformed with pairs of plasmids encoding the indicated derivatives of the T18 and T25 fragments of adenylate cyclase, respectively. Interaction is evidenced by the formation of red colonies. Positive control (+): T25-zip:T18-zip. (G) Effect of ParB on the ATPase activity of MipZ. The average turnover number (kapp) of MipZ was determined over a range of different MipZ concentrations. When appropriate, the reactions were supplemented with ParB and/or parS-containing plasmid DNA (pMT428; 3.6 kb). The data were approximated by the model used in Figure 2F, yielding the following K and kcat values: MipZ alone (7.1 μM and 0.61 min^−1), + ParB (2.6 μM and 0.77 min^−1), + DNA (6.0 μM and 1.5 min^−1), + ParB and DNA (1.6 μM and 1.6 min^−1). See also Figure S4.\nPrevious work has shown that, in the presence of parS-containing DNA, ParB stimulates the ATPase activity of ParA/Soj up to 60-fold ([Leonard et al., 2005; Scholefield et al., 2011]), probably by accelerating the rate of nucleotide hydrolysis. […] To clarify this issue, we reanalyzed the concentration dependence of MipZ's ATPase activity (compare Figure 2F) in the presence of both ParB and/or a plasmid that carried a chromosomal fragment containing all predicted C. crescentus parS sites (Figure 3G). […] Consequently, the MipZ dimer might be able to interact with DNA independently of ParB (as detailed below), leading to conformational adjustments that enhance its hydrolytic potential. […] Collectively, these findings argue against a role of ParB as an ATPase-activating factor. […]\nobtained from crystals flash frozen in a solution of 95% 2 mM, sa mp le s were taken and analyzed for the amount ethanol/50 mM Tris (pH 8.5), and collected at ID23-2, of [α-32P]-GDP produced in the reaction as described ESRF (Grenoble, France). For apo-MipZ in crystal above. form 2, 768 standard conditions were screened in 200 nl To analyze the concentration dependence of MipZ’s sitting drops using a Microsys 4004 Cartesian robotics ATPase activity, varying amounts of MipZ were system and MipZ at a concentration of 10 mg/ml. incubated in buffer P containing 2 mM [α-32P]-ATP and Crystals obtained in a buffer containing 100 mM Hepes 0.3 mg/ml bovine serum albumin and assayed for (pH 7.5), 10% PEG 10000, 4% ethylene glycol and 30% hydrolytic activity as described above. glycerol were flash-frozen, and data were collected at To determine the effect of ParB on MipZ’s ATPase ID23-1, ESRF. activity, varying amounts of MipZ were incubated with All crystals were indexed and integrated using the ParB (4.5 µM) and/or plasmid pMT428 (3.6 kb, 0.2 MOSFLM package and further processed using the µM), which bears a chromosomal fragment containing […]"}, "[2]": {"target": "ParB", "set-up": "method as in Thanbichler and Shapiro, 2006", "settings": "apo-MipZ; ref Thanbichler and Shapiro, 2006; cited from earlier work"}}, "note": "Read-outs that look alike come from different tables or passages of the source."}
{"molecule": "B1", "values": [{"measurement": "Kd", "setting": "[1]; + DNA (pMT428, 0.2 µM)", "result": 6000, "unit": "nM"}, {"measurement": "Kd", "setting": "[1]; + ParB (4.5 µM)", "result": 2600, "unit": "nM"}, {"measurement": "Kd", "setting": "[1]; + ParB and DNA", "result": 1600, "unit": "nM"}, {"measurement": "kcat", "setting": "[1]; MipZ alone", "result": 0.0102, "unit": "s⁻¹"}, {"measurement": "Kd", "setting": "[1]; MipZ alone", "result": 7100, "unit": "nM"}, {"measurement": "increase in the catalytic activity of the dimeric complex (kcat)", "setting": "[1]; upon addition of DNA", "result": "~2", "unit": "fold"}, {"measurement": "decrease in the apparent equilibrium dissociation constant of the dimeric complex", "setting": "[1]; upon addition of ParB", "result": "~4", "unit": "fold"}, {"measurement": "Kd", "setting": "[2]", "result": "~2000", "unit": "nM"}]}
